Laboratory results published in patent US20230322953A1 (HARBOUR BIOMED SHANGHAI, published 2023).

How the values were obtained:
cynomolgus monkey BCMA = biological target: T1, cynomolgus monkey BCMA (cynomolgus monkey); assay: flow cytometry, HEK293T/cyno BCMA cells
T1 construct: whole, on cells; also called cyno BCMA; HEK293T/cyno BCMA cells

[1] = biological target: T2, biotinylated human BCMA-Fc, Avitag recombinant protein (ACRO Biosystems, #BC7-H82F0) (human, UniProt Q02223 1-54, biotinylated); assay: BLI (Octet Red96e), biotinylated BCMA-Fc on SA sensor, antibody in solution, 1:1 global fit
T2 construct: extracellular domain; Bought protein; also called human BCMA protein; recombinant human BCMA-ECD-Fc; not shown: Fc of the bought fusion protein; Avitag
T2 sequence (looked up): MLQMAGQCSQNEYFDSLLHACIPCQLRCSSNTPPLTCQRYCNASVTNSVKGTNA

human BCMA [2] = biological target: T3, human BCMA (human, UniProt Q02223 1-184); assay: flow cytometry, NCI-H929 cells
T3 construct: whole, on cells; the cell line is named under assay; also called TNFRSF17; CD269
T3 sequence (looked up): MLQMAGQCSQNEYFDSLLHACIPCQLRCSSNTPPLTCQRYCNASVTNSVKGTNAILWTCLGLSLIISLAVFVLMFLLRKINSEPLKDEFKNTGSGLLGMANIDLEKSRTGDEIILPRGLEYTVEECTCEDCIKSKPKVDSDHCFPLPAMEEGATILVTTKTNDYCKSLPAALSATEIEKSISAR

human BCMA [3] = biological target: T3, human BCMA; assay: flow cytometry, HEK293T/hBCMA cells
[4] = biological target: T4, human CTLA4 on cells (CHO-K1/hCTLA4; HEK293/hCTLA4; 293F-hCTLA4) (human, UniProt P16410 36-223); assay: FACS, CHO-K1/hCTLA4 cells (Test 1)
T4 construct: whole, on cells
T4 sequence (P16410 36-223): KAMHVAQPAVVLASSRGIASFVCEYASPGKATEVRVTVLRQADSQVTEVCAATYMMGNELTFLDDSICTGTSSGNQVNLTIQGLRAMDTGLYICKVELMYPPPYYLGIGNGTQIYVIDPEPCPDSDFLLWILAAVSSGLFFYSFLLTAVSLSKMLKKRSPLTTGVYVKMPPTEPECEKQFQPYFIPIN

[5] = biological target: T5, biotinylated human CTLA4-Fc protein (ACRO Biosystems, #CT4-H82F3) (human, UniProt P16410 36-161, biotinylated); assay: competition ELISA: biotinylated hCTLA4-Fc to coated B7-1-Fc
T5 construct: bought; also called human CTLA4 protein
T5 sequence (P16410 36-161 limits assumed): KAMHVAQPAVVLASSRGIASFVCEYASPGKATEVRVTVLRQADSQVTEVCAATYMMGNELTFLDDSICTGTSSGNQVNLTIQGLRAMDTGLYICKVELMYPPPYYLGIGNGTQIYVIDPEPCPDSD

[6] = biological target: T6, human PD-L1 on cells (CHO-K1/hPDL1; MDA-MB-231) (human, UniProt Q9NZQ7 19-290); assay: competition FACS: biotinylated PD-1 to CHO-K1/hPDL1 cells (Experiment 1)
T6 construct: whole, on cells
T6 sequence (Q9NZQ7 19-290): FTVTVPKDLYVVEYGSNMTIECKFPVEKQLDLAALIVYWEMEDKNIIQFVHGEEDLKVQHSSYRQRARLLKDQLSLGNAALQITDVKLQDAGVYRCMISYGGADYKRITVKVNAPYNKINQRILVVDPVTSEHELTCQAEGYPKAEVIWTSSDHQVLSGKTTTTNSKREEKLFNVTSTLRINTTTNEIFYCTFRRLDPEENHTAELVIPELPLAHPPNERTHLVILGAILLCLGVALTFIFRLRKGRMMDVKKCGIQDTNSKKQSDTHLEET

[7] = biological target: T7, human CTLA4-His protein (ACRO Biosystems, #CT4-H5229) (human, UniProt P16410 36-161); assay: ELISA, coated hCTLA4-His
T7 construct: extracellular domain; bought; also called hCTLA4-His; human CTLA4 extracellular domain recombinant protein
T7 sequence (P16410 36-161): as the sequence (P16410 36-161 limits assumed) above

[8] = biological target: T4, human CTLA4 on cells (CHO-K1/hCTLA4; …); assay: competition FACS: biotinylated B7-1-Fc to CHO-K1/hCTLA4 cells (Test 1)
[9] = biological target: T6, human PD-L1 on cells (CHO-K1/hPDL1; …); assay: FACS, CHO-K1/hPDL1 cells (Experiment 1)
[10] = biological target: T4, human CTLA4 on cells (CHO-K1/hCTLA4; …); assay: cell-based or functional assay
[11] = biological target: T8, human PD-L1-His protein (ACRO Biosystems, #PD1-H5229) (human, UniProt Q9NZQ7 19-238); assay: ELISA, coated hPD-L1-His
T8 construct: extracellular domain; bought; also called hPDL1-His; human PD-L1 extracellular domain recombinant protein
T8 sequence (Q9NZQ7 19-238): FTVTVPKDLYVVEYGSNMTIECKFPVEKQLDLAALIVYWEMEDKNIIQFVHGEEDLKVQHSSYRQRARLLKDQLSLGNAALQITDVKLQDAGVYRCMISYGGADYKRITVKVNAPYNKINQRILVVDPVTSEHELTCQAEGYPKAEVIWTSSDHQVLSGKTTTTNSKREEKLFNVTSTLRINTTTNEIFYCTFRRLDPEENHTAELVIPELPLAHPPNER

[12] = biological target: T9, biotinylated human BCMA-Fc, Avitag recombinant protein (ACRO Biosystems, #BC7-H82F0) (human, UniProt Q02223 1-54, biotinylated (Avitag)); assay: BLI (Octet Red96e), biotinylated BCMA-Fc on SA sensor, 1:1 global fitting;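 also: Anti-BCMA antibodies analysed as binding partners of the captured BCMA antigen, with reference signals removed by double referencing before kinetic fitting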
T9 construct: extracellular domain; Bought protein; also called huBCMA.Fc; recombinant human BCMA-ECD-Fc
T9 sequence (looked up): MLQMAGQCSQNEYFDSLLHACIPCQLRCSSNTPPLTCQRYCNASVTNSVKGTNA

[13] = biological target: T10, human BCMA on NCI-H929 cells (ATCC, CRL-9068) (human, UniProt Q02223 1-184); assay: cell-based or functional assay
T10 sequence (looked up): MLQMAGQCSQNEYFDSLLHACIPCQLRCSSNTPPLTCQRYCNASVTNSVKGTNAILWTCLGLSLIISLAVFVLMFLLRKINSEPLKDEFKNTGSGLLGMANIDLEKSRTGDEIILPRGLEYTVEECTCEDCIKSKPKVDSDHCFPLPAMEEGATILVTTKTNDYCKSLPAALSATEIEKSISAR

[14] = biological target: T11, cynomolgus monkey BCMA (ACRO Biosystems, #BCA-C82F4) (cynomolgus monkey, UniProt A0A2K5UD97 1-53); assay: BLI; KD for cynomolgus monkey BCMA divided by KD for human BCMA
T11 construct: Bought protein; also called cyBCMA.Fc
T11 sequence (A0A2K5UD97 entry or part of it): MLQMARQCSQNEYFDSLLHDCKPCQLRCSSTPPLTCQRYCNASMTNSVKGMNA

[15] = biological target: T11, cynomolgus monkey BCMA (ACRO …); assay: BLI (Octet Red96e), cyBCMA.Fc on SA sensor, 1:1 global fitting
[16] = biological target: T10, human BCMA on NCI-H929 cells (ATCC, …); assay: cell-based or functional assay; remark: listed apart in the source
[17] = biological target: T12, human CD3 (TCR/CD3 complex) on human T cells (human, UniProt P07766 23-207); assay: flow cytometry (FACS) on human T cells, Experiment 1
T12 construct: whole, on cells
T12 sequence (P07766 23-207, one chain of several): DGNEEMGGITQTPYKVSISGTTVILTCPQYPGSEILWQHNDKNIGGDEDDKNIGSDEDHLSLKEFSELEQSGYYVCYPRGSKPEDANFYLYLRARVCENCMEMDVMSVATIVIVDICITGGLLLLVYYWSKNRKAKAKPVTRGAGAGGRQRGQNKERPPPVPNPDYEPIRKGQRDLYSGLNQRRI

[18] = biological target: T12, human CD3 (TCR/CD3 complex) on human T …; assay: flow cytometry (FACS) on human T cells, Experiment 3
[19] = biological target: T10, human BCMA on NCI-H929 cells (ATCC, …); assay: cell-based or functional assay; remark: listed apart in the source
[20] = biological target: T13, cynomolgus monkey CD3 (TCR/CD3 complex) on cynomolgus monkey T cells (cynomolgus monkey); assay: flow cytometry (FACS) on cynomolgus monkey T cells
T13 construct: whole, on cells
T13 sequence (Q95LI5 22-198, one chain of several): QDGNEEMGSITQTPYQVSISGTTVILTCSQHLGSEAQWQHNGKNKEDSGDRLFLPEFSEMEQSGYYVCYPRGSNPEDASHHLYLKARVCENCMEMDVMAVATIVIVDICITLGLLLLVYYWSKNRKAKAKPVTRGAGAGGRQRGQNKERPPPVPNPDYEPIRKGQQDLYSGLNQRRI

B1: PR001035, anti-BCMA HCAb antibody, clone 1005P36F3 (antibody, human IgG1, V domains shown)
VH: EVQLVETGGGLIQPGGSLRLSCAASGFTVSSNYMTWVRQAPGKGLEWVSVIFSGGSTYYADSVKGRFTISRDNSKNTLYLQMNSLRAEDTAVYYCARRIAVAGHDVFDIWGQGTMVTVSS
notes: Heavy-chain-only antibody (HCAb), human IgG1 Fc, no light chain
- Maximum MFI (cynomolgus monkey BCMA): 10800
- Kd [1]: 0.276 nM
- koff [1]: 8.98e-05 s⁻¹
- kon [1]: 325000 M⁻¹ s⁻¹
- EC50 (human BCMA [2]): 1.19 nM
- Maximum MFI (human BCMA [2]): 113000
- EC50 (human BCMA [3]): 0.336 nM
- Maximum MFI (human BCMA [3]): 39800

B2: PR000301 (bispecific antibody, human IgG1, kappa)
chain: EVQLVESGGGLIQPGGSLRLSCAVSGFTVSKNYMSWVRQAPGKGLEWVSVVYSGGSKTYADSVKGRFTISRDNSKNTLYLQMNSLRAEDTAVYYCARAVPHSPSSFDIWGQGTMVTVSSKLEPKSSDKTHTPPPPPRTDIQMTQSPSTLSASVGDRVTVTCRASQSIYIWLAWYQQKPGKAPNLLIYKASSLETGVPSRFSGSGSGTEFTLTISSLQPDDFATYYCQQYYGSSRTFGQGTKVEIKRTVAAPSVFIFPPSDEQLKSGTASVVCLLNNFYPREAKVQWKVDNALQSGNSQESVTEQDSKDSTYSLSSTLTLSKADYEKHKVYACEVTHQGLSSPVTKSFNRGEC
heavy: not shown
- EC50 [4]: 1.94 nM
- Maximum MFI [4]: 2360 MFI
- IC50 [5]: 2.51 nM
- Maximum inhibition rate (%) [5]: 98.3%
- IC50 [6]: 0.882 nM
- Maximum inhibition rate (%) [6]: 96.2%
- EC50 [7]: 0.35 nM
- Maximum OD450 [7]: 2.92 OD450
- IC50 [8]: 3.21 nM
- Maximum inhibition rate (%) [8]: 99.9%
- EC50 [9]: 0.918 nM
- Maximum MFI [9]: 16600 MFI
- ADCC killing of 293F-hCTLA4 cells, EC50 [10]: 0.031 nM
- ADCC killing of 293F-hCTLA4 cells, Maximum killing rate (%) [10]: 36.6%
- EC50 [11]: 0.131 nM
- Maximum OD450 [11]: 3.53 OD450

B3: PR001990 (bispecific antibody, human IgG1, lambda, L234A L235A)
light: QAVVTQEPSLTVSPGGTVTLTCRSSTGAVTTSNYANWVQQKPGQAPRGLIGGTNKRAPWTPARFSGSLLGDKAALTLLGAQPEDEAEYFCALWYSNLWVFGGGTKLTVLGQPKAAPSVTLFPPSSEELQANKATLVCLISDFYPGAVTVAWKADSSPVKAGVETTTPSKQSNNKYAASSYLSLTPEQWKSHRSYSCQVTHEGSTVEKTVAPTECS
heavy: EVQLLESGGGLVQPGGSLRLSCAASGFTFNTYAMNWVRQAPGKGLEWVSRIRSKYNNYATYYADSVKDRFTISRDDSKSTLYLQMNSLRAEDTAVYYCVRHGNFGNSYVSWFAYWGQGTLVTVSSASTKGPSVFPLAPSSKSTSGGTAALGCLVKDYFPEPVTVSWNSGALTSGVHTFPAVLQSSGLYSLSSVVTVPSSSLGTQTYICNVNHKPSNTKVDKKVEPKSCDKTHTCPPCPAPEAAGGPSVFLFPPKPKDTLMISRTPEVTCVVVDVSHEDPEVKFNWYVDGVEVHNAKTKPREEQYNSTYRVVSVLTVLHQDWLNGKEYKCKVSNKALGAPIEKTISKAKGQPREPQVYTLPPCREEMTKNQVSLWCLVKGFYPSDIAVEWESNGQPENNYKTTPPVLDSDGSFFLYSKLTVDKSRWQQGNVFSCSVMHEALHNHYTQKSLSLSPGK
chain: EVQLVETGGGLIQPGGSLRLSCAASGFTVSDNYMTWVRQAPGKGLEWVSVIFSGGNTYYADSVKGRFTISRDNAKNTLYLQMNSLRAEDTALYYCARRNYDDTRGTDVFDIWGQGTMVTVSSASEPKSSDKTHTCPPCPAPEAAGGPSVFLFPPKPKDTLMISRTPEVTCVVVDVSHEDPEVKFNWYVDGVEVHNAKTKPREEQYNSTYRVVSVLTVLHQDWLNGKEYKCKVSNKALGAPIEKTISKAKGQPREPQVCTLPPSREEMTKNQVSLSCAVKGFYPSDIAVEWESNGQPENNYKTTPPVLDSDGSFFLVSKLTVDKSRWQQGNVFSCSVMHEALHNHYTQKSLSLSPGK
- Kd [12]: 1.95 nM
- koff [12]: 0.000629 s⁻¹
- kon [12]: 322000 M⁻¹ s⁻¹
- Killing EC50 (nM), T cell + NCI-H929, + 10 ng/mL sAPRIL [13]: 0.0879 nM
- Killing EC50 (nM), T cell + NCI-H929, + 10 ng/mL sBAFF [13]: 0.0787 nM
- Killing EC50 (nM), T cell + NCI-H929, + 100 ng/mL sAPRIL [13]: 0.154 nM
- Killing EC50 (nM), T cell + NCI-H929, + 100 ng/mL sBAFF [13]: 0.094 nM
- Killing EC50 (nM), T cell + NCI-H929, no soluble ligand [13]: 0.0733 nM
- KD ratio (cy BCMA/hu BCMA) [14]: 1.72
- Kd [15]: 3.35 nM
- koff [15]: 0.0025 s⁻¹
- kon [15]: 746000 M⁻¹ s⁻¹
- IFN-γ release, EC50 [16]: 1.36 nM
- IFN-γ release, Maximum [16]: 1230 pg/mL
- IL-2 release, EC50 [16]: 5.29 nM
- IL-2 release, Maximum [16]: 185 pg/mL
- IL-6 release, EC50 [16]: 8.2 nM
- IL-6 release, Maximum [16]: 273 pg/mL
- IL-10 release, EC50 [16]: 1.96 nM
- IL-10 release, Maximum [16]: 777 pg/mL
- NCI-H929 killing, EC50 [16]: 0.59 nM
- NCI-H929 killing, Maximum killing rate % [16]: 61.4%
- TNF-α release, EC50 [16]: 5.49 nM
- TNF-α release, Maximum [16]: 1200 pg/mL
- Maximum MFI [17]: 5450 MFI
- Maximum MFI [18]: 350000 MFI
- Killing EC50 (nM), T cell + NCI-H929, + 62.5 ng/ml sBCMA [19]: 0.176 nM
- Killing EC50 (nM), T cell + NCI-H929, + 125 ng/mL sBCMA [19]: 0.234 nM
- Killing EC50 (nM), T cell + NCI-H929, + 250 ng/mL sBCMA [19]: 0.387 nM
- Killing EC50 (nM), T cell + NCI-H929, + 500 ng/mL sBCMA [19]: 0.546 nM
- Killing EC50 (nM), T cell + NCI-H929, no sBCMA [19]: 0.0787 nM
- Maximum MFI [20]: 15600 MFI

B4: PR000300 (bispecific antibody, human IgG1, kappa)
light: DIQMTQSPSTLSASVGDRVTVTCRASQSIYIWLAWYQQKPGKAPNLLIYKASSLETGVPSRFSGSGSGTEFTLTISSLQPDDFATYYCQQYYGSSRTFGQGTKVEIKRTVAAPSVFIFPPSDEQLKSGTASVVCLLNNFYPREAKVQWKVDNALQSGNSQESVTEQDSKDSTYSLSSTLTLSKADYEKHKVYACEVTHQGLSSPVTKSFNRGEC
chain: not shown
notes: PR000070 + VH of PR000184
- EC50 [4]: 2.91 nM
- Maximum MFI [4]: 2620 MFI
- IC50 [5]: 2.09 nM
- Maximum inhibition rate (%) [5]: 98.2%
- IC50 [6]: 0.677 nM
- Maximum inhibition rate (%) [6]: 96.6%
- EC50 [7]: 0.567 nM
- Maximum OD450 [7]: 2.95 OD450
- IC50 [8]: 6.42 nM
- Maximum inhibition rate (%) [8]: 101%
- EC50 [9]: 0.884 nM
- Maximum MFI [9]: 21000 MFI
- ADCC killing of 293F-hCTLA4 cells, EC50 [10]: 0.008 nM
- ADCC killing of 293F-hCTLA4 cells, Maximum killing rate (%) [10]: 23.8%
- EC50 [11]: 0.108 nM
- Maximum OD450 [11]: 3.52 OD450
